Results taken from US20150073033A1 (University of Texas, published 2015).
Numbering of substitutions follows the chain as printed. In names and notes the source's numbering stands.

B1: FLAG-PKM2 K367M (kinase-dead) (enzyme)
chain: not shown
notes: Expressed in U87/EGFR cells
B2: FLAG-PKM2 K433E (enzyme)
chain: not shown
notes: Expressed in U87/EGFR cells; also called PKM2 K433E mutant
B3: FLAG-tagged WT β-catenin (other, UniProt P35222 1-781, looked up)
chain: MATQADLMELDMAMEPDRKAAVSHWQQQSYLDSGIHSGATTTAPSLSGKGNPEEEDVDTSQVLYEWEQGFSQSFTQEQVADIDGQYAMTRAQRVRAAMFPETLDEGMQIPSTQFDAAHPTNVQRLAEPSQMLKHAVVNLINYQDDAELATRAIPELTKLLNDEDQVVVNKAAVMVHQLSKKEASRHAIMRSPQMVSAIVRTMQNTNDVETARCTAGTLHNLSHHREGLLAIFKSGGIPALVKMLGSPVDSVLFYAITTLHNLLLHQEGAKMAVRLAGGLQKMVALLNKTNVKFLAITTDCLQILAYGNQESKLIILASGGPQALVNIMRTYTYEKLLWTTSRVLKVLSVCSSNKPAIVEAGGMQALGLHLTDPSQRLVQNCLWTLRNLSDAATKQEGMEGLLGTLVQLLGSDDINVVTCAAGILSNLTCNNYKNKMMVCQVGGIEALVRTVLRAGDREDITEPAICALRHLTSRHQEAEMAQNAVRLHYGLPVVVKLLHPPSHWPLIKATVGLIRNLALCPANHAPLREQGAIPRLVQLLVRAHQDTQRRTSMGGTQQQFVEGVRMEEIVEGCTGALHILARDVHNRIVIRGLNTIPLFVQLLYSPIENIQRVAAGVLCELAQDKEAAEAIEAEGATAPLTELLHSRNEGVATYAAAVLFRMSEDKPQDYKKRLSVELTSSLFRTEPMAWNETADLGLDIGAQGEPLGYRQDDPSYRSFHSGGYGQDALGMDPMMEHEMGGHHPGADYPVDGLPDLGHAQDLMDGLPPGDSNQLAWFDTDL
notes: Transiently expressed in U87/EGFR or A431 cells; also called FLAG-β-catenin; not shown: FLAG tag
B4: FLAG-β-catenin Y333F (other, UniProt P35222 1-781, looked up)
chain: B3 chain with Y333F
notes: Transiently expressed in U87/EGFR or A431 cells; not shown: FLAG tag
B5: E-cadherin (endogenous, A431 cells) (other, UniProt P12830 155-882, looked up)
chain: DWVIPPISCPENEKGPFPKNLVQIKSNKDKEGKVFYSITGQGADTPPVGVFIIERETGWLKVTEPLDRERIATYTLFSHAVSSNGNAVEDPMEILITVTDQNDNKPEFTQEVFKGSVMEGALPGTSVMEVTATDADDDVNTYNAAIAYTILSQDPELPDKNMFTINRNTGVISVVTTGLDRESFPTYTLVVQAADLQGEGLSTTATAVITVTDTNDNPPIFNPTTYKGQVPENEANVVITTLKVTDADAPNTPAWEAVYTILNDDGGQFVVTTNPVNNDGILKTAKGLDFEAKQQYILHVAVTNVVPFEVSLTTSTATVTVDVLDVNEAPIFVPPEKRVEVSEDFGVGQEITSYTAQEPDTFMEQKITYRIWRDTANWLEINPDTGAISTRAELDREDFEHVKNSTYTALIIATDNGSPVATGTGTLLLILSDVNDNAPIPEPRTIFFCERNPKPQVINIIDADLPPNTSPFTAELTHGASANWTIQYNDPTQESIILKPKMALEVGDYKINLKLMDNQNKDQVTTLEVSVCDCEGAAGVCRKAQPVEAGLQIPAILGILGGILALLILILLLLLFLRRRAVVKEPLLPPEDDTRDNVYYYDEEGGGEEDQDFDLSQLHRGLDARPEVTRNDVAPTLMSVPRYLPRPANPDEIGNFIDENLKAADTDPTAPPYDSLLVFDYEGSGSEAASLSSLNSSESDKDQDYDYLNEWGNRFKKLADMYGGGEDD
B6: endogenous β-catenin (other, human, UniProt P35222 2-781, looked up)
chain: ATQADLMELDMAMEPDRKAAVSHWQQQSYLDSGIHSGATTTAPSLSGKGNPEEEDVDTSQVLYEWEQGFSQSFTQEQVADIDGQYAMTRAQRVRAAMFPETLDEGMQIPSTQFDAAHPTNVQRLAEPSQMLKHAVVNLINYQDDAELATRAIPELTKLLNDEDQVVVNKAAVMVHQLSKKEASRHAIMRSPQMVSAIVRTMQNTNDVETARCTAGTLHNLSHHREGLLAIFKSGGIPALVKMLGSPVDSVLFYAITTLHNLLLHQEGAKMAVRLAGGLQKMVALLNKTNVKFLAITTDCLQILAYGNQESKLIILASGGPQALVNIMRTYTYEKLLWTTSRVLKVLSVCSSNKPAIVEAGGMQALGLHLTDPSQRLVQNCLWTLRNLSDAATKQEGMEGLLGTLVQLLGSDDINVVTCAAGILSNLTCNNYKNKMMVCQVGGIEALVRTVLRAGDREDITEPAICALRHLTSRHQEAEMAQNAVRLHYGLPVVVKLLHPPSHWPLIKATVGLIRNLALCPANHAPLREQGAIPRLVQLLVRAHQDTQRRTSMGGTQQQFVEGVRMEEIVEGCTGALHILARDVHNRIVIRGLNTIPLFVQLLYSPIENIQRVAAGVLCELAQDKEAAEAIEAEGATAPLTELLHSRNEGVATYAAAVLFRMSEDKPQDYKKRLSVELTSSLFRTEPMAWNETADLGLDIGAQGEPLGYRQDDPSYRSFHSGGYGQDALGMDPMMEHEMGGHHPGADYPVDGLPDLGHAQDLMDGLPPGDSNQLAWFDTDL
notes: In EGF-treated cells it is tyrosine-phosphorylated (Y333) in the nucleus
B7: FLAG-tagged wild-type PKM2 (enzyme)
chain: not shown
notes: Expressed in U87/EGFR cells; also called FLAG-PKM2; WT FLAG-PKM2
B8: FLAG-PKM2 R399/400A (enzyme)
chain: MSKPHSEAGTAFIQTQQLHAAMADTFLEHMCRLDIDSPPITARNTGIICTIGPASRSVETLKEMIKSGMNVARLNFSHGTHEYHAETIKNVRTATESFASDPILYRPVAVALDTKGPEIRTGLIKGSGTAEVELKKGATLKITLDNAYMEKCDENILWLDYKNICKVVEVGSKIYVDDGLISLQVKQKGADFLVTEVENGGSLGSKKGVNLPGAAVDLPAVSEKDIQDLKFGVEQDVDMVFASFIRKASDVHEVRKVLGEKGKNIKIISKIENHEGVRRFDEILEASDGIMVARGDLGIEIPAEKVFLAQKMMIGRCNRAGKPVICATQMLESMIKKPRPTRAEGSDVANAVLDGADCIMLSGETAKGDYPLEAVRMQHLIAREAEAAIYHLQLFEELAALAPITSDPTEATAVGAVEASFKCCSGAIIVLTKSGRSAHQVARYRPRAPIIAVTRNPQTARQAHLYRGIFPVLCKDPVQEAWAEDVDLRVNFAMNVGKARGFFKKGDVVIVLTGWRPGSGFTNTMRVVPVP
notes: Expressed in U87/EGFR cells

What was measured:
endogenous β-catenin = biological target: B6; assay: co-IP, EGF-treated U87/EGFR cells
[1] = biological target: APC (endogenous, A431 cells) (UniProt P25054 2-2843, limits assumed); assay: co-IP, A431 cells
Chain of APC (endogenous, A431 cells) (P25054 2-2843 limits assumed): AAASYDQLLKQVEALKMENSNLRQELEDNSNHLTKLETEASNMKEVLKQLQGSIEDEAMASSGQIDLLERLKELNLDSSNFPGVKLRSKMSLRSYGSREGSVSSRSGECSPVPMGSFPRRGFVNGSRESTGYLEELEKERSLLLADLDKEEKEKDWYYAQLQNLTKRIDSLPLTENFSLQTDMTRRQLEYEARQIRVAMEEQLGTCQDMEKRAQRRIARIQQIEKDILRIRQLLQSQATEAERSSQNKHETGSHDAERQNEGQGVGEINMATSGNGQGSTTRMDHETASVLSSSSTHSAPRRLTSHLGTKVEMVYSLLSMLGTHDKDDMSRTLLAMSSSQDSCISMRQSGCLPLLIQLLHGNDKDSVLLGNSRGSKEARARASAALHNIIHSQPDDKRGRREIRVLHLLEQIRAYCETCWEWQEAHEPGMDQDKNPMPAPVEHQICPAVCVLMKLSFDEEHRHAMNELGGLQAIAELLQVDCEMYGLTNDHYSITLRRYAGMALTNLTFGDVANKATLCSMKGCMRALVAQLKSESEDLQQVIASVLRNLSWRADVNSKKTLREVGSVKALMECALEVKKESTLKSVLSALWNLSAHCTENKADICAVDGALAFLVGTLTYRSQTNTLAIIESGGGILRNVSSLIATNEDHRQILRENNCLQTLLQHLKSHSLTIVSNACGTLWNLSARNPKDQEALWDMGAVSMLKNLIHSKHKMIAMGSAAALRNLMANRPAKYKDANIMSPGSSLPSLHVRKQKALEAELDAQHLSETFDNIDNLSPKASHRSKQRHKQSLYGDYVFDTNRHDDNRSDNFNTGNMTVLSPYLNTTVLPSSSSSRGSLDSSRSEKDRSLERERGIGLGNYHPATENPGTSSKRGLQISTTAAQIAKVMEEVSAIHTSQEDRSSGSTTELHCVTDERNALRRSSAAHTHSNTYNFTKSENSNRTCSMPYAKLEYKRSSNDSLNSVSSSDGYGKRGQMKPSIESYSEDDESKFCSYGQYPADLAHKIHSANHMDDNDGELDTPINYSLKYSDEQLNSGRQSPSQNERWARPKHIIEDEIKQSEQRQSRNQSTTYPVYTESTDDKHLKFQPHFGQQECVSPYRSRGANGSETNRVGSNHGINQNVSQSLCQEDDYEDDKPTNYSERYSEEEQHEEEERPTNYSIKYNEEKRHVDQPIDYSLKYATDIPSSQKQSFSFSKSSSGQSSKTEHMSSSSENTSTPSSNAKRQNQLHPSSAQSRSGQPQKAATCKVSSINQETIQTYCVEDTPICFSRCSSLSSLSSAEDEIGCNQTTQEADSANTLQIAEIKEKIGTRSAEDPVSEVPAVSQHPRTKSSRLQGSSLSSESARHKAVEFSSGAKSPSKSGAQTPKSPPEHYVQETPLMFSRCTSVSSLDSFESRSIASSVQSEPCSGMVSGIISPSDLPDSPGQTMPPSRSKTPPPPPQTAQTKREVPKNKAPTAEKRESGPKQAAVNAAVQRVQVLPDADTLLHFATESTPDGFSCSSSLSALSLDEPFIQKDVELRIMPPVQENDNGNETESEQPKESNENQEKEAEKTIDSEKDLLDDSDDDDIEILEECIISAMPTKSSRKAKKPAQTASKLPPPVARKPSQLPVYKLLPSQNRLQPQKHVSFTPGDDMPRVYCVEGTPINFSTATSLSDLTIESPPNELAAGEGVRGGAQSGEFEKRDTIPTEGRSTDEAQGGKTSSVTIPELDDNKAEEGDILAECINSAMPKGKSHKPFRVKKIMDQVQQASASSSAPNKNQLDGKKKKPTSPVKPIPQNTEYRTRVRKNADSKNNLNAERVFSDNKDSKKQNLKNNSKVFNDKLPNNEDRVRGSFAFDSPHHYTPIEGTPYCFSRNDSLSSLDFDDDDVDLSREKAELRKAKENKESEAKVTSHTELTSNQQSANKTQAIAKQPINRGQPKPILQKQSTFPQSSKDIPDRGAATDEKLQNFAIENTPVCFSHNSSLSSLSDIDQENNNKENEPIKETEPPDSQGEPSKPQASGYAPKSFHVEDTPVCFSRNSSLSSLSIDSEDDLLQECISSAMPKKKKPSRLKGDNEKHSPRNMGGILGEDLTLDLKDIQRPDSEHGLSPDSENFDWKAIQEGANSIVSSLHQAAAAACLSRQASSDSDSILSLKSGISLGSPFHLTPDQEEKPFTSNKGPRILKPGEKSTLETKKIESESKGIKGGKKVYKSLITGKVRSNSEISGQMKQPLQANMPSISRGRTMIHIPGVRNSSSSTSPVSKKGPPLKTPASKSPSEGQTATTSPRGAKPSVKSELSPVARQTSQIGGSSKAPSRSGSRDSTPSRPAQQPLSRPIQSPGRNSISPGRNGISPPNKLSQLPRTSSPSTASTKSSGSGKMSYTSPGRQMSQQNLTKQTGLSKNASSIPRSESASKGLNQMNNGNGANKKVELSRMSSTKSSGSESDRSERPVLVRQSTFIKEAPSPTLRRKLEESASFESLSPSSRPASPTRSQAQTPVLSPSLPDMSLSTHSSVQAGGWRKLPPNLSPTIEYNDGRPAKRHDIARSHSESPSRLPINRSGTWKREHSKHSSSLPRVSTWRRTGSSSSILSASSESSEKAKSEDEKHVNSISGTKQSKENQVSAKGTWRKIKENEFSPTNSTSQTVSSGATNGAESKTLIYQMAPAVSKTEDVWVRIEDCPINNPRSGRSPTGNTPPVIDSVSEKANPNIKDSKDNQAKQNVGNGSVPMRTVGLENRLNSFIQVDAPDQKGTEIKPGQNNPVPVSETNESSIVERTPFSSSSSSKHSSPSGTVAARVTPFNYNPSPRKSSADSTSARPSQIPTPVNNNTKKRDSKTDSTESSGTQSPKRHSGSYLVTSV

[2] = biological target: AXIN2 (endogenous, A431 cells) (UniProt Q9Y2T1 1-843); assay: co-IP, A431 cells
Chain of AXIN2 (endogenous, A431 cells) (Q9Y2T1 whole entry): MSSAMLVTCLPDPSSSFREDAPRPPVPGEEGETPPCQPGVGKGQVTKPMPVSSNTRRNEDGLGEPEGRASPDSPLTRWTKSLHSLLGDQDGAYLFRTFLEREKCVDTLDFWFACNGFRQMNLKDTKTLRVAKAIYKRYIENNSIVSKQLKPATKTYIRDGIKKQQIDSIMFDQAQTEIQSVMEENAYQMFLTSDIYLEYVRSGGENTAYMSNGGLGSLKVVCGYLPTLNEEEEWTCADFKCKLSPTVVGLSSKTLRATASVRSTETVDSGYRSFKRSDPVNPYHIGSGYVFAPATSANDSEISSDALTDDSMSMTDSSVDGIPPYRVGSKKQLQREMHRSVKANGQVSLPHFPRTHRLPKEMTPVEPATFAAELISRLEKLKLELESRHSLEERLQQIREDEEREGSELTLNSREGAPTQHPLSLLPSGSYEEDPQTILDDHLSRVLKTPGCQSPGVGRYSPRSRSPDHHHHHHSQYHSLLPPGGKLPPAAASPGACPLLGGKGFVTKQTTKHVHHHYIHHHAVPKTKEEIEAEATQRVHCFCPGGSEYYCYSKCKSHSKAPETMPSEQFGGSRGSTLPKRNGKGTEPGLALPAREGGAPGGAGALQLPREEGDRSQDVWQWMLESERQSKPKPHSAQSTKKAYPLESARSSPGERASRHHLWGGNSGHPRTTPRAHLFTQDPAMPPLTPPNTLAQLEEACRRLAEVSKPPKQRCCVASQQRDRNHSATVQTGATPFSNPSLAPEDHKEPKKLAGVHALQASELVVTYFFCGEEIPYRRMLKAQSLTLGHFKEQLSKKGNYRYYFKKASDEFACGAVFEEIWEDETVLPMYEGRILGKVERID

FLAG-β-catenin Y333F = biological target: B4; assay: co-IP, A431 cells
FLAG-tagged WT β-catenin = biological target: B3; assay: co-IP, A431 cells
endogenous c-Src = endogenous c-Src (human, UniProt P12931 2-536); assay: co-IP from nuclear fractions of U87/EGFR cells
purified GST-importin α5 = biological target: T1, purified GST-importin α5 (human, UniProt P52294 1-538, limits assumed); assay: GST pull-down from lysates of EGF-treated U87/EGFR cells
T1 construct: Expressed in bacteria and purified; not shown: GST
T1 sequence (P52294 whole entry): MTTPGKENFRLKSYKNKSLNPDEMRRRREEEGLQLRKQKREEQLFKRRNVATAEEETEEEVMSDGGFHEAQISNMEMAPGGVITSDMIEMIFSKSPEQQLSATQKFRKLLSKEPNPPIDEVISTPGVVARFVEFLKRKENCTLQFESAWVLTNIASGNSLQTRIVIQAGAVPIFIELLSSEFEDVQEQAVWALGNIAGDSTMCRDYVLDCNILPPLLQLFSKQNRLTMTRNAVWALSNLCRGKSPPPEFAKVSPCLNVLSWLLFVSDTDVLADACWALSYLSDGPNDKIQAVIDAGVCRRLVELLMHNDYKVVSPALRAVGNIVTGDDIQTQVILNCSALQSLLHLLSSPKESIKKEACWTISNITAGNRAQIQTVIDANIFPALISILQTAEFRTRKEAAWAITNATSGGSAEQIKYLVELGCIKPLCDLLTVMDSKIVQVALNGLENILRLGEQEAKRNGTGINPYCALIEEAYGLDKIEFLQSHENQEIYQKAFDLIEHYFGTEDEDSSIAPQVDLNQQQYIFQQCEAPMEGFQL

Binder: B1
binding result (endogenous β-catenin): binds

Binder: B2
binding result (endogenous β-catenin): no binding

Binder: B3
binding result [1]: binds
binding result [2]: binds

Binder: B4
binding result [1]: binds
binding result [2]: binds

Binder: B5
binding result (FLAG-β-catenin Y333F): binds
binding result (FLAG-tagged WT β-catenin): binds

Binder: B6
binding result (endogenous c-Src): binds

Binder: B7
binding result (endogenous β-catenin): binds

Binder: B8
binding result (purified GST-importin α5): no binding
